2 molecules from paper PMC3517901, “The TSC1-TSC2 complex consists of multiple TSC1 and TSC2 subunits” (BMC Biochemistry, 2012) can be followed below.

The chains are these.
B2: TSC2, untagged, full-length (transfected) (natural protein)
chain: not shown
notes: TSC2; also called untagged TSC2; source: HEK 293T, transfected, in lysate; also co-purified with TSC1-TEV-myc on anti-myc beads and released by AcTEV

The target in data set [1] is B2. Briefly: SEC; TSC1-TSC2 complex from cotransfected HEK 293T cells, purified on anti-myc affinity beads, released by AcTEV overnight at 4°C, Coomassie gel and Superose 6 gel filtration, fractions immunoblotted. Conditions: both partners purified. (In gel filtration, larger molecules generally elute earlier.)
Data set [2] concerns the molecule itself. The data set is described as above.

B1: TSC1-TEV-myc, released from anti-myc beads by AcTEV (natural protein, UniProt Q92574 1-1164, looked up)
chain: MAQQANVGELLAMLDSPMLGVRDDVTAVFKENLNSDRGPMLVNTLVDYYLETSSQPALHILTTLQEPHDKHLLDRINEYVGKAATRLSILSLLGHVIRLQPSWKHKLSQAPLLPSLLKCLKMDTDVVVLTTGVLVLITMLPMIPQSGKQHLLDFFDIFGRLSSWCLKKPGHVAEVYLVHLHASVYALFHRLYGMYPCNFVSFLRSHYSMKENLETFEEVVKPMMEHVRIHPELVTGSKDHELDPRRWKRLETHDVVIECAKISLDPTEASYEDGYSVSHQISARFPHRSADVTTSPYADTQNSYGCATSTPYSTSRLMLLNMPGQLPQTLSSPSTRLITEPPQATLWSPSMVCGMTTPPTSPGNVPPDLSHPYSKVFGTTAGGKGTPLGTPATSPPPAPLCHSDDYVHISLPQATVTPPRKEERMDSARPCLHRQHHLLNDRGSEEPPGSKGSVTLSDLPGFLGDLASEEDSIEKDKEEAAISRELSEITTAEAEPVVPRGGFDSPFYRDSLPGSQRKTHSAASSSQGASVNPEPLHSSLDKLGPDTPKQAFTPIDLPCGSADESPAGDRECQTSLETSIFTPSPCKIPPPTRVGFGSGQPPPYDHLFEVALPKTAHHFVIRKTEELLKKAKGNTEEDGVPSTSPMEVLDRLIQQGADAHSKELNKLPLPSKSVDWTHFGGSPPSDEIRTLRDQLLLLHNQLLYERFKRQQHALRNRRLLRKVIKAAALEEHNAAMKDQLKLQEKDIQMWKVSLQKEQARYNQLQEQRDTMVTKLHSQIRQLQHDREEFYNQSQELQTKLEDCRNMIAELRIELKKANNKVCHTELLLSQVSQKLSNSESVQQQMEFLNRQLLVLGEVNELYLEQLQNKHSDTTKEVEMMKAAYRKELEKNRSHVLQQTQRLDTSQKRILELESHLAKKDHLLLEQKKYLEDVKLQARGQLQAAESRYEAQKRITQVFELEILDLYGRLEKDGLLKKLEEEKAEAAEAAEERLDCCNDGCSDSMVGHNEEASGHNGETKTPRPSSARGSSGSRGGGGSSSSSSELSTPEKPPHQRAGPFSSRWETTMGEASASIPTTVGSLPSSKSFLGMKARELFRNKSESQCDEDGMTSSLSESLKTELGKDLGVEAKIPLNLDGPHPSPPTPDSVGQLHIMDYNETHHEHS
notes: TSC1 with an AcTEV recognition site (ENLYFQG) introduced by site directed mutagenesis before the myc tag; after cleavage part of the site (ENLYFQ) would remain on TSC1; The position of the site is in Additional file 1
As to B1, the binding result in data set [1] was “binds”.

On to B2, for which, in data set [2], the binding result is “binds”.
